Data on 1 molecule can be found in patent publication US20230028110A1 (ADAPTATE BIOTHERAPEUTICS, published 2023).

Test [1] addresses Vδ1 chain of the γδ TCR on human Vδ1 γδ T cells (human). Briefly: cell-based or functional assay.
Test [2] has the same target. Briefly: cell-based or functional assay. The source holds these as a separate data set.
Test [3] deals with T1, L1 (DV1-GV4), soluble human Vδ1/Vγ4 γδ TCR heterodimer in leucine zipper format (human).
T1 construct: Biotinylated in the DELFIA ranking; also called Antigen L1 (TRDV1/TRGV4); human DV1-GV4; not shown: gamma chain: Vγ4 (TRGV4) domain on a TCR constant region, leucine zipper, histidine tag
Description: SPR (Reichert 4SPR), antibody on Protein A chip, antigen flown over.

In test [4] the target is T1, L1 (DV1-GV4), soluble human Vδ1/Vγ4 γδ …. The description is as above. This is another data set of the same source.
Description: (§1) Recombinant human Vδ1 heterodimer or human MSLN was flown over the cell at a top concentration of 100 nM with the following parameters: 180 s association, 480 s dissociation, flowrate 25 μL/min, running buffer PBS+0.05% Tween 20. All experiments were performed at room temperature.
Test [5] concerns the target T2, TIGIT on activated CD4 T-cells.
T2 chain: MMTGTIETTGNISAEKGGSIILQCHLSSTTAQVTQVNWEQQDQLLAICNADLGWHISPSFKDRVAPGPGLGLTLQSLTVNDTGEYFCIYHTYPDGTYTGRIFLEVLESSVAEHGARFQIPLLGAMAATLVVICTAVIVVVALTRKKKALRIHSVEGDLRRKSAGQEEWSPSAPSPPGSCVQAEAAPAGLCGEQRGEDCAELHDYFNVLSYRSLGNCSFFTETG
Description: flow cytometry, anti-human IgG secondary antibody, activated CD4 T-cells.

The next test has as its target Recombinant human FAPα (human, UniProt Q12884 26-760). Briefly: SPR, Reichert 4SPR; antibody captured on Protein A chip, human FAPα flown over.
For a further test, the target named is T3, Recombinant human MSLN (human, UniProt Q13421 296-580, limits assumed).
T3 construct: also called mesothelin
Description: SPR, Reichert 4SPR; antibody captured on Protein A chip, human MSLN flown over. In general terms: SPR reads the build-up and loss of mass on a sensor chip optically.

Test [6] deals with T4, Vδ1 chain of the γδ TCR on human Vδ1 γδ T cells (human).
T4 construct: whole, on cells; also called cell surface Vδ1 TCR; Vδ1-positive γδ T cells
Description: flow cytometry on Vδ1 γδ T-cells, anti-human IgG secondary antibody, % cells bound IgG. For orientation: A flow cytometer gives signals particle by particle.

For test [7], the target named is T4, Vδ1 chain of the γδ TCR on human Vδ1 γδ …. Described as above. This is another data set of the same source.
The target is the same in test [8]. Briefly: flow cytometry, Vδ1 γδ T cells of donor ATS006, mAb titrated up to about 500 nM at 4 C, anti-human IgG detection.
Description: All incubation steps were performed at 4° C. and mAb binding was determined using flow cytometry to measure the median level of fluorescence. Logarithmic four parameter dose-response curves were fitted using GraphPad Prism 9. […] For Vδ1-positive γδ T cell, data is represented as the mean two donors.
A range of target cells were assayed to determine the specificity and affinity of Vδ1 mAb binding. This included expanded skin-derived Vδ1 γδ T-cells, HEK293T cells, Raji cells, and multiple leukocyte subsets within human primary blood mononuclear cells. Adherent or semi-adherent cells (skin-derived Vδ1 γδ T-cells, HEK293T) were detached from tissue culture flask and resuspended in PBS. Similarly, non-adherent cell types (Raji, PBMC), were harvested and resuspended in PBS. Cells were seeded at a final density of 100,000 cells per well in v-bottom 96-well plates. Cells underwent centrifugation and the cell pellets were resuspended in FcR blocking reagent according to the manufacturer's instructions, and incubated for 20 minutes at 4C prior to a further wash. […] To determine the quantity of mAb bound to the cell surface, the cells were then stained with a murine anti-human IgG secondary antibody, conjugated to APC (dilution: 1:100). For Vδ1 γδ T-cells, HEK293T and Raji, the cells were also stained solely with a viability dye.
In test [9] the target is T5, OX40 on activated CD4 T-cells.
T5 construct: also called OX40+ CD4 T-cells
T5 chain: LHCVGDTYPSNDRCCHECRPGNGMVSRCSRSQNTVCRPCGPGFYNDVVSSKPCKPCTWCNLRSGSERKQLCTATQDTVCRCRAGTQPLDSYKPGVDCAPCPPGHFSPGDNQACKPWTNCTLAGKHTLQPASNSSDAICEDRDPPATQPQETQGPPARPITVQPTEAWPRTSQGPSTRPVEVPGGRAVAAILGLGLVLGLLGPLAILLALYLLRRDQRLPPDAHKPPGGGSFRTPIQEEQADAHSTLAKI
Briefly: flow cytometry on anti-CD3/anti-CD28-activated CD4 T-cells, anti-human IgG secondary antibody, % cells bound IgG.
Description: Initially CD4+ T-cells were negatively selected by magnetic sorting from PBMC buffy coats extracted from whole blood. Following activation by anti-CD3/anti-CD28 antibodies conjugated to Dynabeads (Invitrogen), cell surface expression of OX40 was elevated on CD4 T-cells. […] After washing, cells were incubated for a further 15 minutes with anti-human IgG secondary antibodies before washing and fixing. The amount of antibody bound to each cell type was determined by flow cytometry.

Test [10] deals with PD-1 on activated CD4 and CD8 T-cells. Briefly: flow cytometry on anti-CD3/anti-CD28-activated CD4 and CD8 T-cells, anti-human IgG secondary antibody, % cells bound IgG.

Read-outs that look alike come from different tables or passages of the source.

T4 sequence (A0A1B0GX56 22-115, stated change not applied): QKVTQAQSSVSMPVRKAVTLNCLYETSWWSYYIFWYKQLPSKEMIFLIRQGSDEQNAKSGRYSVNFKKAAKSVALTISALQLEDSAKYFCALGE
T1 sequence (main, as listed by the source): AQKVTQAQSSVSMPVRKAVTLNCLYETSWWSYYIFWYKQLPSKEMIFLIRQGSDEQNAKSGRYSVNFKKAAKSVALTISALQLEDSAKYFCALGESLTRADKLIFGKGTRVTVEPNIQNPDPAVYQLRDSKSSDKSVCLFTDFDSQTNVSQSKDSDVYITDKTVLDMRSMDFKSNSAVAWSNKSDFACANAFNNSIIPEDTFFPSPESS
T3 sequence (Q13421 other isoform, or with tags, fused parts or gaps limits assumed): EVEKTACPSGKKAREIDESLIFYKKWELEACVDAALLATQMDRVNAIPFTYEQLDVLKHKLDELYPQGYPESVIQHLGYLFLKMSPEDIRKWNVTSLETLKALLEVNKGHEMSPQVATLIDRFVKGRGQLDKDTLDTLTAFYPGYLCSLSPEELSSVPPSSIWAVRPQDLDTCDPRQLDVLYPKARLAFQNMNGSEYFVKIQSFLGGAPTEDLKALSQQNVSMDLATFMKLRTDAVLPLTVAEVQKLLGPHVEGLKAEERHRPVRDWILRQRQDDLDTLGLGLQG
Sequence of Recombinant human FAPα (Q12884 26-760 limits assumed): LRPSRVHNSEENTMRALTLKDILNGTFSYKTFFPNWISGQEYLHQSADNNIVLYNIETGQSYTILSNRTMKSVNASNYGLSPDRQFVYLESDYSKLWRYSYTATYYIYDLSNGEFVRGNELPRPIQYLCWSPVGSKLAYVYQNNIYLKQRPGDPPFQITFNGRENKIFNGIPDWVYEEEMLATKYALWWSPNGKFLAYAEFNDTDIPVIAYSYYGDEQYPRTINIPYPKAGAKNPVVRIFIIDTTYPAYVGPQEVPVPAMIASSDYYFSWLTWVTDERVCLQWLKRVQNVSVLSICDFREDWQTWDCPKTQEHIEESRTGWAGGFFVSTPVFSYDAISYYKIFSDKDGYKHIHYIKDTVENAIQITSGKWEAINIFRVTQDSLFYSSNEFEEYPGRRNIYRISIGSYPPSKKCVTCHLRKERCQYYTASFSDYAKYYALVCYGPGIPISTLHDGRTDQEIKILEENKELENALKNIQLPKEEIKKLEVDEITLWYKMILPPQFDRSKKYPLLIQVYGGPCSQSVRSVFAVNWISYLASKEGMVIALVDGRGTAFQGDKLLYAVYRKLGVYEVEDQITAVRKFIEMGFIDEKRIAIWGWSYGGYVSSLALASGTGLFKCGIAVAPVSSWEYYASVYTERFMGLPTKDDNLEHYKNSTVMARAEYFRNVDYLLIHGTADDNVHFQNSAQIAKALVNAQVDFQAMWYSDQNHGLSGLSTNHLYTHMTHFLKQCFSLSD
Sequence of PD-1 on activated CD4 and CD8 T-cells (chain, as listed by the source limits assumed): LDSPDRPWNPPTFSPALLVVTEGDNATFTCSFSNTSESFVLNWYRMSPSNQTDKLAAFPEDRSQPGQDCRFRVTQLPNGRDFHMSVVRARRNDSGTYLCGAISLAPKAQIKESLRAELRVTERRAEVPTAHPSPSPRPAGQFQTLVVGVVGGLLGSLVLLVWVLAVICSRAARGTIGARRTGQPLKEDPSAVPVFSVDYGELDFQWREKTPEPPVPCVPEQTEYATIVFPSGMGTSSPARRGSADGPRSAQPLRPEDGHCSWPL
Description for Recombinant human FAPα: Recombinant human Vδ1 heterodimer or human FAPα was flown over the cell at a concentration of 100 nM with the following parameters: 180 s association, 480 s dissociation, flowrate 25 μL/min, running buffer PBS+0.05% Tween 20. All experiments were performed at room temperature.
Description for Recombinant human MSLN: as §1

B1: ADT1-4-2 (antibody, IgG1, V domains shown)
VH: EVQLQQSGPGLVKPSQTLSLTCAISGDSVSSKSAAWNWIRQSPSRGLEWLGRTYYRSKWSTDYAASVKSRITINPDTSKNQLSLQLNSVTPEDTAVYYCARTWVGYVDRWGQGTLVTVSS
VL: DIQMTQSPPALSASVGDRVTITCRASQDINDWLAWYQHKPGKAPKLLIYDASSLESGVPLRFSGSGSGTEFTLTISSLQPDDFATYYCQQKYSAPQVTFGQGTRLEIK
notes: IgG1
One may read the Kd as the free concentration of one partner at which half of the binding sites on the other are occupied at equilibrium, for simple one-to-one binding. Read a low Kd as higher affinity. By EC50 (read off the curve) is commonly meant the concentration needed to bring the measured effect to its halfway point. As for B1, the “IC50 (read off the curve), Vδ1 TCR downregulation, γδ T-cells alone” value in test [1] was around 0.1 nM. Further, in test [2], the “IC50 (read off the curve), Vδ1 TCR downregulation, γδ T-cells with activated OX40+ CD4 T-cells” value was around 0.1 nM. Also, the figures for the Kd in [3] and in [4] were 0.14 nM and 0.01 nM, respectively. The binding result in test [5] was “no binding (tested: 200 nM)”; in the test with Recombinant human FAPα it was “no binding”; with Recombinant human MSLN it was “no binding”; in test [9], “no binding (tested: 200 nM)”; in test [10], “no binding (tested: 200 nM)”. Besides, the figures for the “EC50 (read off the curve)” value in test [6], in test [7] and in [8] were around 0.2 nM, around 0.2 nM and around 2 nM, respectively.
